Biological target: Lathyrus sativus β-L-ODAP synthase (LsBOS), N-terminal His-tag (Lathyrus sativus)
Experiment: SPR; Biacore 8K, CM5 chip; LsBOS amine-coupled (~1700 response), LsAAE3 as analyte; single cycle kinetics at 2.4, 12, 60, 300 and 1500 nM; 10 mM Hepes pH 7.4, 150 mM NaCl, 0.05 % tween 20, 25 °C; simple Langmuir binding model

Kd: 98 nM
koff: 0.000361 s⁻¹
kon: 3670 M⁻¹ s⁻¹
stoichiometry N: 1
Substance: Lathyrus sativus acyl-activating enzyme 3 (LsAAE3), N-terminal His-tag
